± gives the uncertainty stated by the source.

The nature of this data set: abundance fitness (aPCA) (normalised: wild type 0, dead -1); higher = more abundant; growth selection in yeast, the domain comes from the species named. Particulars: Homo sapiens.
With Transcription factor SOX-4 K60R, Q06945, the abundance fitness was -0.294 ± 0.066.
For Transcription factor SOX-4 K95Q, Q06945 the value was 0.115 ± 0.14; for “Transcription factor SOX-4 K101T, Q06945”, -0.029 ± 0.065.
To Transcription factor SOX-4 L99A, Q06945 belongs 0.041 ± 0.062; to Transcription factor SOX-4 M78A, Q06945, -0.006 ± 0.058.
For Transcription factor SOX-4 M84L, Q06945 the value was 0.014 ± 0.055; for “Transcription factor SOX-4 M120L, Q06945”, -0.047 ± 0.082.
Turning to Transcription factor SOX-4 R75K, Q06945, the abundance fitness stood at 0.07 ± 0.046.
To Transcription factor SOX-4 R92M, Q06945 belongs 0.128 ± 0.11; to Transcription factor SOX-4 R96S, Q06945, -0.162 ± 0.17; to Transcription factor SOX-4 S70A, Q06945, 0.014 ± 0.057.
Substance Transcription factor SOX-4 S81N, Q06945 returned an abundance fitness of 0.007 ± 0.056.
In turn, “Transcription factor SOX-4 S103L, Q06945” yielded an abundance fitness of -0.454 ± 0.082.
Regarding “Transcription factor SOX-4 Y123H, Q06945”, the abundance fitness was -0.03 ± 0.12.

The record behind these values is the Human Domainome abundance scans (Beltran et al. 2025).
